According to article PMC2670981, “Divergence of Catalytic Mechanism within a Glycosidase Family Provides Insight into Evolution of Carbohydrate Metabolism by Human Gut Flora” (Chemistry & Biology, 2008):

B1: BtGH97b (Bacteroides thetaiotaomicron VPI-5482) (protein)
chain: QKQFTLASPDGNLKTTITIGDRLTYDITCNGRQILTPSPISMTLDNGTVWGENAKLSGTSRKSVDEMIPSPFYRASELRNHYNGLTLRFKKDWNVEFRAYNDGIAYRFVNQGKKPFRVVTEVSDYCFPSDMTASVPYVKSGKDGDYNSQFFNSFENTYTTDKLSKLNKQRLMFLPLVVDAGDGVKVCITESDLENYPGLYLSASEGANRLSSMHAPYPKRTVQGGHNQLQMLVKEHEDYIAKVDKPRNFPWRIAVVTTTDKDLAATNLSYLLGAPSRMSDLSWIKPGKVAWDWWNDWNLDGVDFVTGVNNPTYKAYIDFASANGIEYVILDEGWAVNLQADLMQVVKEIDLKELVDYAASKNVGIILWAGYHAFERDMENVCRHYAEMGVKGFKVDFMDRDDQEMTAFNYRAAEMCAKYKLILDLHGTHKPAGLNRTYPNVLNFEGVNGLEQMKWSSPSVDQVKYDVMIPFIRQVSGPMDYTQGAMRNASKGNYYPCYSEPMSQGTRCRQLALYVVFESPFNMLCDTPSNYMREPESTAFIAEIPTVWDESIVLDGKMGEYIVTARRKGDVWYVGGITDWSARDIEVDCSFLGDKSYHATLFKDGVNAHRAGRDYKCESFPIKKDGKLKVHLAPGGGFALKIK
B2: BtGH97a (Bacteroides thetaiotaomicron VPI-5482) (protein)
chain: QQKLTSPDNNLVMTFQVDSKGAPTYELTYKNKVVIKPSTLGLELKKEDNTRTDFDWVDRRDLTKLDSKTNLYDGFEVKDTQTATFDETWQPVWGEEKEIRNHYNELAVTLYQPMNDRSIVIRFRLFNDGLGFRYEFPQQKSLNYFVIKEEHSQFGMNGDHIAFWIPGDYDTQEYDYTISRLSEIRGLMKEAITPNSSQTPFSQTGVQTALMMKTDDGLYINLHEAALVDYSCMHLNLDDKNMVFESWLTPDAKGDKGYMQTPCNTPWRTIIVSDDARNILASRITLNLNEPCKIADAASWVKPVKYIGVWWDMITGKGSWAYTDELTSVKLGETDYSKTKPNGKHSANTANVKRYIDFAAAHGFDAVLVEGWNEGWEDWFGNSKDYVFDFVTPYPDFDVKEIHRYAARKGIKMMMHHETSASVRNYERHMDKAYQFMADNGYNSVKSGYVGNIIPRGEHHYGQWMNNHYLYAVKKAADYKIMVNAHEATRPTGICRTYPNLIGNESARGTEYESFGGNKVYHTTILPFTRLVGGPMDYTPGIFETHCNKMNPANNSQVRSTIARQLALYVTMYSPLQMAADIPENYERFMDAFQFIKDVALDWDETNYLEAEPGEYITIARKAKDTDDWYVGCTAGENGHTSKLVFDFLTPGKQYIATVYADAKDADWKENPQAYTIKKGILTNKSKLNLHAANGGGYAISIKEVKDKSEAKGLKRL

Experiments:
Conditions in all cases: Ca2+
purified protein = substrate: OC[C@H]1O[C@H](OC[C@H]2OC(O)[C@H](O)[C@@H](O)[C@@H]2O)[C@H](O)[C@@H](O)[C@H]1O; assay: purified protein
[1] = substrate: O=[N+]([O-])c1ccc(O[C@H]2O[C@H](CO)[C@H](O)[C@H](O)[C@H]2O)cc1; assay: Michaelis-Menten kinetics (KM) and 1H NMR of hydrolysis; format: biochemical, Bacteroides thetaiotaomicron
[2] = substrate: O=[N+]([O-])c1ccc(O[C@H]2O[C@H](CO)[C@@H](O)[C@H](O)[C@H]2O)cc1; assay: as above; format: biochemical, Bacteroides thetaiotaomicron
[3] = substrate: OC[C@H]1O[C@H](O[C@H]2[C@H](O)[C@@H](O)C(O)O[C@@H]2CO)[C@H](O)[C@@H](O)[C@@H]1O; assay: stopped glucose oxidase/peroxidase assay, Michaelis-Menten (KM) with substrate inhibition; format: biochemical, Bacteroides thetaiotaomicron

Row | Protein | Km (purified protein) | kcat (purified protein) | kcat/Km (purified protein) | Km [1] | kcat [1] | kcat/Km [1] | Km [2] | kcat [2] | kcat/Km [2] | Km [3] | kcat [3] | kcat/Km [3]
1 | B1 | 1500 ± 170 µM | 0.015 s⁻¹ | 11 M⁻¹ s⁻¹ | 230 ± 10 µM | 91 ± 2 s⁻¹ | 391000 M⁻¹ s⁻¹ |  |  |  |  |  | 
2 | B2 |  |  |  |  |  |  | 85 ± 9 µM | 53 ± 2 s⁻¹ | 620000 M⁻¹ s⁻¹ | 2000 ± 400 µM | 0.015 ± 0.002 s⁻¹ | 7.2 M⁻¹ s⁻¹
